Experiment [1] addresses mRFP-Toca-1 (Transducer of Cdc42-dependent actin assembly, wild type) (human). The experiment is described as follows: FRET or BRET; frequency-domain FLIM of the GFP donor (LIFA system, 40 MHz) in cells co-expressing GFP and mRFP proteins; lifetime of GFP in cells approximately 2.2 ns. In general terms: BRET reads energy transfer from a luciferase to a nearby fluorophore.
Experiment [2] addresses GFP-N-WASP (neuronal Wiskott Aldrich syndrome protein, wild type) (UniProt O08816). The experiment is described as follows: AP-FRET (acceptor photobleaching FRET) in transfected cells. The settings on record: mRFP-Toca-1MGD383-385IST and GFP-N-WASP; 36 hr expression; n = 7-10, from 2-3 experiments.
Experiment [3] has as its target mRFP-Toca-1 (Transducer of Cdc42-dependent actin assembly, wild type). The description is as above.

mRFP-Toca-1 (Transducer of Cdc42-dependent actin assembly, wild type) (human), sequence (Q5T0N5 whole entry): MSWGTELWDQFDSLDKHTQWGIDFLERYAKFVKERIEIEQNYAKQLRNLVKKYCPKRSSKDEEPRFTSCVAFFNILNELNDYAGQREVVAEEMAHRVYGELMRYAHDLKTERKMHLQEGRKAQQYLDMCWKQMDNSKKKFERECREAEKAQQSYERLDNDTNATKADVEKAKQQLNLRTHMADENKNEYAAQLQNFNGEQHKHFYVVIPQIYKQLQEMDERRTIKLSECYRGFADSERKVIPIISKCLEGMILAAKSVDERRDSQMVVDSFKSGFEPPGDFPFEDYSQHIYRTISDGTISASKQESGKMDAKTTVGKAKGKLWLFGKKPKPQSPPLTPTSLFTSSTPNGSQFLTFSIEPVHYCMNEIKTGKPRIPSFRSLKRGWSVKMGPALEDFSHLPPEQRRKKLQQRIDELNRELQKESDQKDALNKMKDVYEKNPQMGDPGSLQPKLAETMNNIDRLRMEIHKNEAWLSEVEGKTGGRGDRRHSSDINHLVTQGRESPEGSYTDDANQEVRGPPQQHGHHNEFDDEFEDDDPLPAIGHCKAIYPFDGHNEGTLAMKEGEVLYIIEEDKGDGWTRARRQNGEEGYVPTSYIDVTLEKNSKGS

In experiment [1], “GFP-N-WASP (neuronal Wiskott Aldrich syndrome protein, wild type) (from UniProt O08816 1-501) (natural protein)” registered a GFP donor lifetime (FLIM), in tubules of 1.59 ns and a GFP donor lifetime (FLIM), in vesicles of 1.64 ns.

In turn, “mRFP-Toca-1 (Transducer of Cdc42-dependent actin assembly, wild type) M383I; G384S; D385T” gave an other: FRET efficiency in experiment [2] of 17.5%.

As for Cdc42 (wild type) G12V, the other: FRET efficiency in experiment [3] (ROI on tubules, mRFP-Toca-1, HA-N-WASP and GFP-Cdc42G12V co-expressed, 36 hours expression) was 9%; in experiment [3] (ROI on vesicles, mRFP-Toca-1, HA-N-WASP and GFP-Cdc42G12V co-expressed, 36 hours expression) it was 0.03%.

In the case of “GFP-N-WASP (neuronal Wiskott Aldrich syndrome protein, wild type) (from UniProt O08816) H208D”, the other: FRET efficiency in experiment [3] (mRFP-Toca-1 and GFP-N-WASPH208D, 36 hr expression, n = 7-10, from 2-3 experiments) amounted to 3.87%.

The record behind these values is PMC2921345.
